Source: US20200325179A1 (EUROPEAN MOLECULAR BIOLOGY LABORATORY, published 2020)
Ends that are not written are not given here.

Experiments:
[1] = target: T1, ADDomer with one cysteine mutation Q476C (synthetic penton base protomer based on …); assay: non-reducing SDS-PAGE and blot; biotinylated peptide detected with Alexa488 avidin, ADDomer with a specific antibody and a Cy3 secondary antibody; covalent disulfide
T1 construct: Virus-like particle: 12 pentamers of 5 engineered penton base protomers each; also called Cys-ADDomer; Cys modified ADDomer
T1 chain: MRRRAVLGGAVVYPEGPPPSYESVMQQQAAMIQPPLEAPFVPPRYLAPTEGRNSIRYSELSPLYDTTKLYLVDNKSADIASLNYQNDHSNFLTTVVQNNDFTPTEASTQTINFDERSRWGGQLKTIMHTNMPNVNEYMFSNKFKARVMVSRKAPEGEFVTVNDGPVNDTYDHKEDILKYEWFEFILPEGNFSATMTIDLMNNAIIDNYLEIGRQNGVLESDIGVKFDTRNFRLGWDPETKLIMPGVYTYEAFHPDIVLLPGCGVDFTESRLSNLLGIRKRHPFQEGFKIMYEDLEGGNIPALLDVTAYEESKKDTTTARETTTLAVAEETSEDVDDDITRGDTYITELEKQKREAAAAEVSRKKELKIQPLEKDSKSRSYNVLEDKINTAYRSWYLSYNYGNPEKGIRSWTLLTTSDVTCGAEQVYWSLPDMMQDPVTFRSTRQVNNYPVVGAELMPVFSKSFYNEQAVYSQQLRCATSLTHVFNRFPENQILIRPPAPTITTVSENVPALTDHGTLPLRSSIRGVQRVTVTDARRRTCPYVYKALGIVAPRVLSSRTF
Method: (§1) FIG. 14: Covalent coupling of “STICKER” peptide to ADDomer containing targeted cystein mutations. Wild-type ADDomer (wt) and ADDomer with one cysteine mutation (K363C, Q476C or A477C, respectively) were incubated with STICKER peptides (C20 (SEQ ID NO: 77) and C9 (SEQ ID NO: 75), respectively). SDS-PAGE analysis was performed under reducing (+bMeSH) and non-reducing (−bMeSH) conditions and transferred to a PVDF membrane. ADDomer (dark grey) and STICKER peptide (light grey) were visualized by binding of labelled antibody and Avidin binding, respectively, evidencing STICKER binding to cysteine-mutant ADDomer by specific disulfide bond formation (marked by white circle in lower panel)
(§2) To widen the ADDomer potential, a system enabling the addition of extra epitopes at the ADDomer was developed. Single cysteines were inserted at specific locationd of the ADDomer sequence (either K363C or Q476C or A477C). […] Complexes were run on SDS-PAGE and ADDomer was detected by a specific antibody and a secondary antibody labelled with Cy3 while the biotinylated peptide was detected by Alexa488 labeled avidin. When the right Cys-ADDomer/peptide was used, the presence of peptide was detected at the ADDomer band size (circle in FIG. 14). […]

[2] = target: T2, ADDomer with one cysteine mutation A477C (synthetic penton base protomer based on …); assay: as above
T2 construct: Virus-like particle: 12 pentamers of 5 engineered penton base protomers each; also called Cys-ADDomer; Cys modified ADDomer
T2 chain: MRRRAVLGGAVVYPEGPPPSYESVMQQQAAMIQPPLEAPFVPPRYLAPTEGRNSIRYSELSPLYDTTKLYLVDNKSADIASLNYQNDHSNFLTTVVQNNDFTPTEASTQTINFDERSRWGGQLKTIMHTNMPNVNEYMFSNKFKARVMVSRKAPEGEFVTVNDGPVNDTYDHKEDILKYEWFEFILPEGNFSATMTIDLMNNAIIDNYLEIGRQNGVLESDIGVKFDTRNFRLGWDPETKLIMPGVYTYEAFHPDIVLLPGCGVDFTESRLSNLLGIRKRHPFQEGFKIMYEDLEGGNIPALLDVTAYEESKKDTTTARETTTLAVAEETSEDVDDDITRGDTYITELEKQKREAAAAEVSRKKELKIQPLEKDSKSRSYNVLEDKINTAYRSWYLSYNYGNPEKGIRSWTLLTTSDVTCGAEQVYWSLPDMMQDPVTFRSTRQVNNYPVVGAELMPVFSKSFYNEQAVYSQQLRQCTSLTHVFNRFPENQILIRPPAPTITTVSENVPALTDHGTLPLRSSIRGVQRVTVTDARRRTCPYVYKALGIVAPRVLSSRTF
Method: as §1, §2

What does the source list for AKRARLSTCFNPVYPYEDES (also: biotinylated (position not given here), Detected by Alexa488 labelled avidin) [STICKER peptide C9 (fibre protein fragment, Cys at position 9)]?
binding result [1]: binds; binding result [2]: binds
